Where no end group is shown, it is not given here. [ ]: non-standard residue; d: D form. pT = C[C@@H](OP(=O)(O)O)[C@H](N)C(=O)O
Columns and labels:
[1] = target: recombinant Nedd4L WW2 domain; experiment: ITC
Smurf1 WW2 domain = experiment: ITC
Chain of Smurf1 WW2 domain (Q9HCE7 whole entry, the tested form may be a part): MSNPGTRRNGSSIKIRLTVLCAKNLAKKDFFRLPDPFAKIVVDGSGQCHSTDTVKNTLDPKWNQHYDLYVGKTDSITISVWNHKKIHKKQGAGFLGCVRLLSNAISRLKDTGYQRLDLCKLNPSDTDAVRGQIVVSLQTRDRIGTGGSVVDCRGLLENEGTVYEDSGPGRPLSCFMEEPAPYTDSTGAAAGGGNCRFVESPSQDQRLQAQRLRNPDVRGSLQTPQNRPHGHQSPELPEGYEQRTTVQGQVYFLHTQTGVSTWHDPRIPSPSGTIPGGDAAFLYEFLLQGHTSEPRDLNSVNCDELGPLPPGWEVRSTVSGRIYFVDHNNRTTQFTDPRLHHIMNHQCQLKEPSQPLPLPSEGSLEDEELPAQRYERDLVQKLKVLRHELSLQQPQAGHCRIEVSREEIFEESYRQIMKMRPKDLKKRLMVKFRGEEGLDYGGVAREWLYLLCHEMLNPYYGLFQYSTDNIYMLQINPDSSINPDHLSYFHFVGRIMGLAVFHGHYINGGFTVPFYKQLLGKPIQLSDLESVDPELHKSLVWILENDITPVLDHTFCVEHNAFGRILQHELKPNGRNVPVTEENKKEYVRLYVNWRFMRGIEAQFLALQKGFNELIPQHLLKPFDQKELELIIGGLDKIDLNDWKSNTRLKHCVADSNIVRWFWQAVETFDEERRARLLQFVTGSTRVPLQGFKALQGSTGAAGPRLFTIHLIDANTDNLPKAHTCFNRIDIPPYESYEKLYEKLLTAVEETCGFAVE

Chain of recombinant Nedd4L WW2 domain (Q96PU5 whole entry, the tested form may be a part): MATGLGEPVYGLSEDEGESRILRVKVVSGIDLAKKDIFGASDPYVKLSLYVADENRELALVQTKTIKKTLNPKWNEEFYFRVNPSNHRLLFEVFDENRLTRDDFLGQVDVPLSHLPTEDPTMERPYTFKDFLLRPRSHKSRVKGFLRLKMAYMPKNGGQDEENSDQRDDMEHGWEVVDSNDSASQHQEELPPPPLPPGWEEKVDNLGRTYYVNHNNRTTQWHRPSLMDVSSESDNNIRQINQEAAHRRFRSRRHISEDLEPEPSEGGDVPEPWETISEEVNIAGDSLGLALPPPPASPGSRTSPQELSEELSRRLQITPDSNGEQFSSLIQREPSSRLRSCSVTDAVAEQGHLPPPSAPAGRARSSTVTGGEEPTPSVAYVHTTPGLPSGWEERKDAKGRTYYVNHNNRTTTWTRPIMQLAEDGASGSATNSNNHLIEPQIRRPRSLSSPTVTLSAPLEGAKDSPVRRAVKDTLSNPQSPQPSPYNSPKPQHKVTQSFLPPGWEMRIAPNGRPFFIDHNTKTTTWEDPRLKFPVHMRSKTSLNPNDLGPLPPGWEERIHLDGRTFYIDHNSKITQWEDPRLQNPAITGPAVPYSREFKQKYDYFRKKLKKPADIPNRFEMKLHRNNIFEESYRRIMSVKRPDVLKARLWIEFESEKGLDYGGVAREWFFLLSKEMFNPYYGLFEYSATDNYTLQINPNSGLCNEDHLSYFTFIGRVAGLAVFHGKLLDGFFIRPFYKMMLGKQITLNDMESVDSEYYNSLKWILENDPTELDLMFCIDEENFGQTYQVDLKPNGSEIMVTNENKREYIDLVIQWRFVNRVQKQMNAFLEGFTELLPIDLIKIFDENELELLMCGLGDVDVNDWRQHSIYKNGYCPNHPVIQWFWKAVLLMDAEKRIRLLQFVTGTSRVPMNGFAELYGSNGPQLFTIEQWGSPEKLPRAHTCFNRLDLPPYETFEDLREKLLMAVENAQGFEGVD

Binder	Kd [1]	Kd (Smurf1 WW2 domain)
IPE[pT]PPPGYLSED [Smad3 pT-PY motif peptide (phosphothreonine)]	4.1 µM	36 µM
PADTPPPAYLPPE [Smad1 T-PY motif peptide]		32 µM
IPE[pT]PPPGYISED [Smad2 pT-PY motif peptide (phosphothreonine)]	7.8 µM	

— PMC2796330 (Molecular cell, 2009)
